Source: patent US12410262B2, “Peptide conjugates of cytotoxins as therapeutics” (Cybrexa 2, Inc., priority 2019, dated 2025)
Like-named read-outs stand apart in the source and are kept apart here. Residues, ends and D or L forms follow the SMILES beside them. *: point of attachment. X2 = CC[C@@]1(O)C(=O)OCc2c1cc1n(c2=O)Cc2c-1nc1cc(F)c(C)c3c1c2[C@@H](NC(=O)O[C@H](C)[C@@H](C)S*)CC3; X6 = CC[C@@]1(O)C(=O)OCc2c1cc1n(c2=O)Cc2c-1nc1cc(F)c(C)c3c1c2[C@@H](NC(=O)OCC1(S*)CCC1)CC3

How the values were obtained:
FaDu = test: cells; format: cell-based
Experimental: (§1) Cells were plated in 96 well black walled-clear bottom plates (Griener), DLD-1 WT cells at 2500 cells per well, FaDu, and HeLa cells at 5000 cells per well, and HCT116 at 3000 cells per well, in growth media containing 10% FBS. Cells were allowed to adhere at room temperature for 60 minutes before returning to a 37 C, 5% CO2 incubator. After 24 hours, media was removed and replaced with fresh growth media containing various drug concentrations. Each drug concentration was added in triplicate. Non-drug treated controls contained growth media only. Cells were returned to the incubator. Ninety-six hours after addition of drug, cells were fixed with 4% paraformaldehyde for 20 minutes and stained with Hoechst at 1 ug/mL. The plates were imaged on a Cytation 5 auto imager (BioTek) and cells were counted using CellProfiler (http://cellprofiler.org). The percent cell growth delay was calculated and data plotted using GraphPad Prism

HeLa cells = test: cells; format: cell-based
Experimental: as §1

HCT116 = test: cells; format: cell-based, human
Procedure, shortened: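 DLD-1 WT (2500/well), FaDu and HeLa (5000/well) and HCT116 (3000/well) were grown in 10% FBS media and dosed in triplicate 24 h after plating. After 96 h of drug exposure at 37 °C, cells were fixed, Hoechst-stained and counted by imaging; percent growth delay was calculated versus untreated controls.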

DLD-1 WT cells = test: cells; format: cell-based; details: 96 h
Experimental: as §1

[1] = Glutathione cleavage study; format: in vitro ADME; details: for remaining at 4 h, 100 µM / remaining at 24 h, 100 µM: Tris buffer with 10 mM glutathione, Glutathione Challenge (10 mM), 100 μM conjugate, Tris pH 7.5, 37° C.
Procedure, shortened: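 Conjugate stocks at 20 mM in 100% DMSO were diluted in 100 mM Tris, pH 7.5, to a final 100 μM. Freshly made glutathione was added to 10 mM, and samples were incubated at 37° C. for up to 24 hrs. Samples were extracted with phosphoric acid and acetonitrile/0.1% TFA, centrifuged, and analyzed by HPLC, with peak areas compared to the time-0 conjugate peak.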

Plasma stability studies = format: in vitro ADME; details: rat plasma, 100 μM conjugate, 37° C.
Procedure, shortened: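 Conjugate at 100 μM final in rat plasma (diluted from DMSO stock via 100 mM Tris, pH 7.5), incubated at 37° C for up to 24 h, sampled at 0, 4 and 24 h. Samples acid/acetonitrile-extracted and analysed by HPLC; remaining conjugate expressed as peak area relative to time 0 ×100.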

| Structure (SMILES) | IC50 (FaDu; FaDu cells, 96 h after addition of drug, read-out: FaDu (IC50)) [nM] | IC50 (HeLa cells; HeLa cells, 96 h after addition of drug, read-out: HeLa (IC50)) [nM] | IC50 (HCT116; HCT116 cells, 96 h after addition of drug, read-out: HCT116 (IC50)) [nM] | IC50 (DLD-1 WT cells) [nM] | IC50 (FaDu; 96 h) [nM] | IC50 (HeLa cells; 96 h) [nM] | IC50 (HCT116; 96 h) [nM] | remaining at 4 h, 100 µM [1] [%] | remaining at 24 h, 100 µM [1] [%] | remaining at 4 h, 100 µM (Plasma stability studies) [%] | remaining at 24 h, 100 µM (Plasma stability studies) [%] | degradation on glutathione exposure (FIG. 10) ([1]; 10 mM glutathione over 16 h) |
| --- | --- | --- | --- | --- | --- | --- | --- | --- | --- | --- | --- | --- |
| CC[C@H](C)[C@H](NC(=O)[C@@H]1CCCN1C(=O)[C@H](CC(N)=O)NC(=O)[C@H](CCC(N)=O)NC(=O)[C@H](CCC(=O)O)NC(=O)[C@H](C)N)C(=O)N[C@@H](Cc1ccc(O)cc1)C(=O)N[C@@H](Cc1c[nH]c2ccccc12)C(=O)N[C@@H](C)C(=O)N[C@@H](CCCNC(=N)N)C(=O)N[C@@H](Cc1ccc(O)cc1)C(=O)N[C@@H](C)C(=O)N[C@@H](CC(=O)O)C(=O)N[C@@H](Cc1c[nH]c2ccccc12)C(=O)N[C@@H](CC(C)C)C(=O)N[C@@H](Cc1ccccc1)C(=O)N[C@H](C(=O)N[C@H](C(=O)N1CCC[C@H]1C(=O)N[C@@H](CC(C)C)C(=O)N[C@@H](CC(C)C)C(=O)N[C@@H](CC(C)C)C(=O)N[C@@H](CC(C)C)C(=O)N[C@@H](CC(=O)O)C(=O)N[C@@H](CC(C)C)C(=O)N[C@@H](C)C(=O)N[C@@H](CC(C)C)C(=O)N[C@@H](CC(C)C)C(=O)N[C@H](C(=O)N[C@@H](CC(=O)O)C(=O)N[C@@H](C)C(=O)N[C@@H](CC(=O)O)C(=O)N[C@@H](CCC(=O)O)C(=O)N[C@@H](CSSC1(COC(=O)N[C@H]2CCc3c(C)c(F)cc4nc5c(c2c34)Cn2c-5cc3c(c2=O)COC(=O)[C@]3(O)CC)CCC1)C(=O)NCC(=O)O)C(C)C)[C@@H](C)O)[C@@H](C)O [Compound 3] (H-AEQNPIYWARYADWLFTTPLLLLDLALLVDADEC(X6)G-OH; N-terminus and C-terminus assumed) | 5.9 | 7.6 | 8.33 |  |  |  |  |  |  |  |  |  |
| CC[C@H](C)[C@H](NC(=O)[C@@H]1CCCN1C(=O)[C@H](CC(N)=O)NC(=O)[C@H](CCC(N)=O)NC(=O)[C@H](CCC(=O)O)NC(=O)[C@H](C)N)C(=O)N[C@@H](Cc1ccc(O)cc1)C(=O)N[C@@H](Cc1c[nH]c2ccccc12)C(=O)N[C@@H](C)C(=O)N[C@@H](CCCNC(=N)N)C(=O)N[C@@H](Cc1ccc(O)cc1)C(=O)N[C@@H](C)C(=O)N[C@@H](CC(=O)O)C(=O)N[C@@H](Cc1c[nH]c2ccccc12)C(=O)N[C@@H](CC(C)C)C(=O)N[C@@H](Cc1ccccc1)C(=O)N[C@H](C(=O)N[C@H](C(=O)N1CCC[C@H]1C(=O)N[C@@H](CC(C)C)C(=O)N[C@@H](CC(C)C)C(=O)N[C@@H](CC(C)C)C(=O)N[C@@H](CC(C)C)C(=O)N[C@@H](CC(=O)O)C(=O)N[C@@H](CC(C)C)C(=O)N[C@@H](C)C(=O)N[C@@H](CC(C)C)C(=O)N[C@@H](CC(C)C)C(=O)N[C@H](C(=O)N[C@@H](CC(=O)O)C(=O)N[C@@H](C)C(=O)N[C@@H](CC(=O)O)C(=O)N[C@@H](CCC(=O)O)C(=O)N[C@@H](CSS[C@H](C)[C@@H](C)OC(=O)N[C@H]1CCc2c(C)c(F)cc3nc4c(c1c23)Cn1c-4cc2c(c1=O)COC(=O)[C@]2(O)CC)C(=O)NCC(=O)O)C(C)C)[C@@H](C)O)[C@@H](C)O [Compound 4] (H-AEQNPIYWARYADWLFTTPLLLLDLALLVDADEC(X2)G-OH; N-terminus and C-terminus assumed) |  |  |  | 0.8 | 0.06 | 0.07 | 0.1 |  |  |  |  |  |
| CC[C@@]1(O)C(=O)OCc2c1cc1n(c2=O)Cc2c-1nc1cc(F)c(C)c3c1c2[C@@H](NC(=O)OC[C@@H](SSC[C@H](NC(=O)[C@H](Cc1c[nH]c2ccccc12)NC(=O)[C@H](CC(C)C)NC(=O)[C@H](CC(C)C)NC(=O)[C@H](CC(=O)O)NC(=O)[C@H](CC(C)C)NC(=O)[C@H](CC(C)C)NC(=O)[C@H](CC(C)C)NC(=O)[C@@H](NC(=O)[C@H](CC(=O)O)NC(=O)[C@@H](NC(=O)[C@@H]1CCCN1C(=O)[C@H](Cc1ccccc1)NC(=O)[C@H](CC(C)C)NC(=O)[C@H](CC(C)C)NC(=O)[C@H](CC(=O)O)NC(=O)[C@H](CC(C)C)NC(=O)[C@H](Cc1ccc(O)cc1)NC(=O)[C@H](C)NC(=O)[C@H](CCCNC(=N)N)NC(=O)[C@H](Cc1c[nH]c2ccccc12)NC(=O)[C@@H]1CCCN1C(=O)[C@H](CC(N)=O)NC(=O)[C@H](CCC(N)=O)NC(=O)[C@H](CC(=O)O)NC(=O)[C@H](CC(=O)O)NC(=O)[C@H](C)N)[C@@H](C)O)[C@@H](C)O)C(=O)NCC(=O)O)C(C)C)CC3 [Compound 27] |  |  |  |  |  |  | 0.7 | 18 | 0 | 117 | 109 |  |
| CC[C@@]1(O)C(=O)OCc2c1cc1n(c2=O)Cc2c-1nc1cc(F)c(C)c3c1c2[C@@H](NC(=O)OC[C@H](SSC[C@H](NC(=O)[C@H](Cc1c[nH]c2ccccc12)NC(=O)[C@H](CC(C)C)NC(=O)[C@H](CC(C)C)NC(=O)[C@H](CC(=O)O)NC(=O)[C@H](CC(C)C)NC(=O)[C@H](CC(C)C)NC(=O)[C@H](CC(C)C)NC(=O)[C@@H](NC(=O)[C@H](CC(=O)O)NC(=O)[C@@H](NC(=O)[C@@H]1CCCN1C(=O)[C@H](Cc1ccccc1)NC(=O)[C@H](CC(C)C)NC(=O)[C@H](CC(C)C)NC(=O)[C@H](CC(=O)O)NC(=O)[C@H](CC(C)C)NC(=O)[C@H](Cc1ccc(O)cc1)NC(=O)[C@H](C)NC(=O)[C@H](CCCNC(=N)N)NC(=O)[C@H](Cc1c[nH]c2ccccc12)NC(=O)[C@@H]1CCCN1C(=O)[C@H](CC(N)=O)NC(=O)[C@H](CCC(N)=O)NC(=O)[C@H](CC(=O)O)NC(=O)[C@H](CC(=O)O)NC(=O)[C@H](C)N)[C@@H](C)O)[C@@H](C)O)C(=O)NCC(=O)O)C(C)C)CC3 [Compound 28] |  |  |  |  |  |  | 1.1 | 40.5 | 0 | 106 | 106 |  |
| CC[C@@]1(O)C(=O)OCc2c1cc1n(c2=O)Cc2c-1nc1cc(F)c(C)c3c1c2[C@@H](NC(=O)CCSSC[C@H](NC(=O)[C@H](Cc1c[nH]c2ccccc12)NC(=O)[C@H](CC(C)C)NC(=O)[C@H](CC(C)C)NC(=O)[C@H](CC(=O)O)NC(=O)[C@H](CC(C)C)NC(=O)[C@H](CC(C)C)NC(=O)[C@H](CC(C)C)NC(=O)[C@@H](NC(=O)[C@H](CC(=O)O)NC(=O)[C@@H](NC(=O)[C@@H]1CCCN1C(=O)[C@H](Cc1ccccc1)NC(=O)[C@H](CC(C)C)NC(=O)[C@H](CC(C)C)NC(=O)[C@H](CC(=O)O)NC(=O)[C@H](CC(C)C)NC(=O)[C@H](Cc1ccc(O)cc1)NC(=O)[C@H](C)NC(=O)[C@H](CCCNC(=N)N)NC(=O)[C@H](Cc1c[nH]c2ccccc12)NC(=O)[C@@H]1CCCN1C(=O)[C@H](CC(N)=O)NC(=O)[C@H](CCC(N)=O)NC(=O)[C@H](CC(=O)O)NC(=O)[C@H](CC(=O)O)NC(=O)[C@H](C)N)[C@@H](C)O)[C@@H](C)O)C(=O)NCC(=O)O)CC3 [Compound 29] |  |  |  |  |  |  | 69 | 3.1 | 5.9 | 116 | 110 | released much faster than Compound 11 |
